B1: … (SEQ ID NO: 381) (peptide)
peptide: KYPASSSVF
B2: … (SEQ ID NO: 387) (peptide)
peptide: KYTEKLEEI
B3: … (SEQ ID NO: 380) (peptide)
peptide: VYTGIDHHW
B4: … (SEQ ID NO: 358) (peptide)
peptide: YYSEVPVKL
B5: … (SEQ ID NO: 361) (peptide)
peptide: TYADIGGLDNQI
B6: … (SEQ ID NO: 359) (peptide)
peptide: NYGVLHVTF
B7: … (SEQ ID NO: 383) (peptide)
peptide: RYKPGEPITF
B8: … (SEQ ID NO: 356) (peptide)
peptide: NYMPGQLTI
B9: … (SEQ ID NO: 373) (peptide)
peptide: GYISNGELF
B10: … (SEQ ID NO: 379) (peptide)
peptide: VFIAQGYTL
B11: … (SEQ ID NO: 377) (peptide)
peptide: QYTPHSHQF
B12: … (SEQ ID NO: 360) (peptide)
peptide: VFSPDGHLF
B13: … (SEQ ID NO: 372) (peptide)
peptide: VYVIEPHSMEF
B14: … (SEQ ID NO: 386) (peptide)
peptide: TFSDVEAHF
B15: … (SEQ ID NO: 384) (peptide)
peptide: RYFDVGLHNF
B16: … (SEQ ID NO: 388) (peptide)
peptide: IYGEKTYAF
B17: … (SEQ ID NO: 375) (peptide)
peptide: KYTDYILKI
B18: … (SEQ ID NO: 355) (peptide)
peptide: IYVTGGHLF
B19: … (SEQ ID NO: 378) (peptide)
peptide: VYIAELEKI
B20: … (SEQ ID NO: 365) (peptide)
peptide: VFIDHPVHL
B21: … (SEQ ID NO: 363) (peptide)
peptide: SYAELGTTI
B22: … (SEQ ID NO: 382) (peptide)
peptide: AYLPPLQQVF
B23: … (SEQ ID NO: 368) (peptide)
peptide: KYQNVKHNL
B24: … (SEQ ID NO: 367) (peptide)
peptide: LYQDHMQYI
B25: … (SEQ ID NO: 371) (peptide)
peptide: AYSHLRYVF
B26: … (SEQ ID NO: 370) (peptide)
peptide: RFIGIPNQF
B27: … (SEQ ID NO: 357) (peptide)
peptide: QFITSTNTF
B28: … (SEQ ID NO: 364) (peptide)
peptide: KYLNENQLSQL
B29: … (SEQ ID NO: 376) (peptide)
peptide: VYTPVASRQSL
B30: … (SEQ ID NO: 385) (peptide)
peptide: QYIEELQKF
B31: … (SEQ ID NO: 366) (peptide)
peptide: QYLELAHSL
B32: … (SEQ ID NO: 362) (peptide)
peptide: VYNYAEQTL
B33: … (SEQ ID NO: 374) (peptide)
peptide: VFLPRVTEL
B34: … (SEQ ID NO: 369) (peptide)
peptide: VYTHEVVTL

Target: HLA-A*24 (human)
Assay: UV-exchange ELISA, exchange yield grade

peptide exchange yield	Binder
50 to 75%	B1
50 to 75%	B2
> 75%	B3
50 to 75%	B4
50 to 75%	B5
> 75%	B6
50 to 75%	B7
> 75%	B8
50 to 75%	B9
> 75%	B10
50 to 75%	B11
50 to 75%	B12
50 to 75%	B13
50 to 75%	B14
50 to 75%	B15
50 to 75%	B16
50 to 75%	B17

peptide exchange yield	Binder
50 to 75%	B18
50 to 75%	B19
> 75%	B20
20 to 49%	B21
50 to 75%	B22
50 to 75%	B23
20 to 49%	B24
20 to 49%	B25
50 to 75%	B26
> 75%	B27
50 to 75%	B28
50 to 75%	B29
50 to 75%	B30
50 to 75%	B31
20 to 49%	B32
20 to 49%	B33
50 to 75%	B34
